Assay results reported in patent US20250011413A1 (MCMASTER UNIVERSITY, published 2025).

Assays:
[1] = biological target: T1, PF4/heparin complex (human PF4 complexed with heparin) (human, UniProt P02776 32-101); experiment: competition EIA, scFv 50 µg/mL; competitor HIT-negative sera antibodies, n=10
T1 construct: Multimeric complex of PF4 with heparin (not a protein); In the EIAs: PF4 captured on biotinylated heparin on streptavidin plates; In the SRA: platelets with 0.2 U/mL heparin; also called PF4 and heparin complexes
T1 sequence: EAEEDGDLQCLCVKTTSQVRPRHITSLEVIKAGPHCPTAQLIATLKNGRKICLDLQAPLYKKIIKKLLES
Procedure: (§1) Inhibitory PF4/heparin IgG-specific Streptavidin Enzyme Immunoassay (EIA). The binding activity of wildtype and mutant scFv antibodies to PF4/heparin complexes was measured using an inhibitory PF4/heparin IgG-specific EIA with a streptavidin-biotin capture system. Before performing this protocol, 96-well NUNC Maxisorp plates (ThermoFisher) were coated with 10 μg/mL streptavidin for 24 h. Plates were then blocked with 3% bovine serum albumin (BSA) in phosphate buffered saline (PBS) for 2 h at room temperature. Plates were then coated with 1 U/mL biotinylated-heparin for 1 h followed by 30 μg/mL PF4 for 1 h. Increasing concentrations of wildtype or mutant scFv were added and incubated for 1 hr at room temperature. Without removing wildtype or scFv, HIT patient sera in a 1:50 dilution or full-length KKO (2 μg/mL) was then incubated for 1 h at room temperature. After washing, alkaline phosphatase-conjugated anti-human or anti-mouse IgG (Jackson Immuno Research Laboratories, Inc., West Grove, PA) was added at a 1:4000 dilution and incubated for 1 h temperature. For detection, 1 mg/mL p-nitrophenylphosphate (PNPP, Sigma-Aldrich) substrate dissolved in 1 mol/L diethanolamine (DEA) buffer (pH 9.6) was added. The optical density (OD) was measured at 2 min intervals for 30 min at 405 nm (OD₄₀₅ₙₘ) using a BioTek 800 TS plate reader (BioTek Instruments Inc., Winooski, VT) to determine if anti-PF4/heparin antibody binding was inhibited. Results were reported as a decrease in OD (absorbance at 405 nm) from baseline levels.
Sera (n=10) from confirmed HIT-negative patients (EIA-positive/SRA-negative) containing anti-PF4/heparin antibodies were then used in the same EIA with scFv constructs to determine if antibody binding was decreased in this cohort (Table 5).

[2] = biological target: T1, PF4/heparin complex (human PF4 …); experiment: competition EIA, scFv 50 µg/mL; competitor HIT-positive sera antibodies, n=10
Procedure: as §1
Inhibiting HIT-Positive (EIA+/SRA+) HIT-Negative (EIA+/SRA−) antibody binding: Sera (n=10) from confirmed HIT-positive patients (EIA-positive/SRA-positive) containing anti-PF4/heparin antibodies were used in a modified streptavidin-biotin based anti-PF4/heparin IgG EIA (streptavidin anti-PF4/hep EIA) with scFv at 50 μg/mL. On average, antibody binding to PF4/heparin was reduced in the presence of scFv.

[3] = biological target: T2, Human PF4 (CXCL4), biotinylated, without heparin (human, UniProt P02776 32-101, biotinylated with EZ-link-Sulfo-NHS-LC-Biotin (sites not given)); experiment: BLI (Octet), biotinylated PF4 without heparin on streptavidin sensors, scFv 1 µg/mL, 1:1 model
T2 construct: Immobilised on streptavidin biosensors for BLI; also called PF4 alone; platelet factor 4
T2 sequence: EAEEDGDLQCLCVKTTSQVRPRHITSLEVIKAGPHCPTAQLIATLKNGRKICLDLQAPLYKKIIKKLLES
Procedure: (§2) The Octet-QK Red 96 (FortéBio, Menlo Park, CA) instrumentation was used to conduct all BLI experiments. A 96-well microtiter plate (black, flat-bottom) was used to hold 200 μL per well of either sample or buffer. Pre-coated streptavidin biosensor tips (FortéBio) were hydrated in phosphate buffered saline (PBS) containing 1% bovine serum albumin (BSA, Sigma-Aldrich) before performing all kinetic assays. Each step was performed at an operating temperature of 23° C. with agitation at 1000 rpm. Streptavidin tips were first equilibrated in PBS+1% BSA to establish a baseline. […] The PF4-coated tips were then dipped into PBS+1% BSA for 13 minutes to re-establish a baseline. Tips were then incubated in an analyte solution containing half-fold dilutions of wildtype scFv (4.0, 2.0, 1.0, 0.5, 0.25 μg/mL in PBS+1% BSA) for 10 minutes to measure association. For mutant scFv association, tips were incubated in an analyte solution containing 200 μL of each mutant and wildtype scFv at a final concentration of 1 μg/mL in PBS+1% BSA. Antibody dissociation steps were performed by dipping sensors in wells containing PBS+1% BSA for 56 minutes. The following negative controls included in these kinetic experiments were also measured: 200 μL of buffer to replace both the antigen and scFv and 200 μL buffer replacing scFv only. Each experiment was performed with PF4 or with PF4/heparin as the immobilized antigen.
(§3) BLI experiments were performed to evaluate binding responses and affinities of wildtype and mutant scFv. Biotinylated PF4 alone or complexed with heparin was immobilized on streptavidin biosensors and used to capture wildtype scFv. Half-fold serial dilutions of wildtype scFv ranging from 0.25 μg/mL to 4 μg/mL were used to determine the optimal concentrations for future experiments PF4 (PF4 FIG. 3; PF4/heparin FIG. 4).

[4] = biological target: T2, Human PF4 (CXCL4), biotinylated, …; experiment: BLI (Octet), biotinylated PF4 without heparin on streptavidin sensors, scFv at 1 µg/mL, 1:1 model, mean ± s.d. [cont.) b]
Procedure: BLI experiments were performed using wildtype scFv, mutant B, mutant C, mutant D, mutant E, and mutant F at 1 μg/mL. Binding was measured against immobilized biotinylated PF4 on streptavidin biosensors. b) Table showing kinetic data of wildtype and mutant scFv, including binding responses and association and dissociation rates. All data was analyzed based on a 1:1 homogenous ligand binding model using Octet® User Software version 3.1.
as §2
BLI experiments were performed to evaluate binding responses and affinities of wildtype and mutant scFv. Biotinylated PF4 alone or complexed with heparin was immobilized on streptavidin biosensors and used to capture wildtype scFv.

[5] = biological target: T2, Human PF4 (CXCL4), biotinylated, …; experiment: BLI (Octet), biotinylated PF4 without heparin on streptavidin sensors, 1:1 model; scFv at 0.5 µg/mL
Procedure: as §2, §3

[6] = biological target: T1, PF4/heparin complex (human PF4 …); experiment: cell-based or functional assay

mean OD405nm of bound serum IgG (+ scFv) [1]: 1.41 OD405nm | mean OD405nm of bound serum IgG (+ scFv) [2]: 0.931 OD405nm | Kd [3]: 1320 nM | koff [4]: 0.00255 s⁻¹ | kon [4]: 12500 M⁻¹ s⁻¹ | Kd [5]: 34.5 nM | koff [5]: 0.0037 s⁻¹ | kon [5]: 107000 M⁻¹ s⁻¹ | % inhibition of 14C-serotonin release (SRA), HIT-Positive Patient #1 serum, scFv 50 µg/mL [6]: 15.6% | % inhibition of 14C-serotonin release (SRA), HIT-Positive Patient #1 serum, scFv 75 µg/mL [6]: 17.8% | % inhibition of 14C-serotonin release (SRA), HIT-Positive Patient #2 serum, scFv 50 µg/mL [6]: 37.2% | % inhibition of 14C-serotonin release (SRA), HIT-Positive Patient #2 serum, scFv 75 µg/mL [6]: 15.4% | % inhibition of 14C-serotonin release (SRA), HIT-Positive Patient #3 serum, scFv 50 µg/mL [6]: 4.8% | % inhibition of 14C-serotonin release (SRA), HIT-Positive Patient #3 serum, scFv 75 µg/mL [6]: 12% | % inhibition of 14C-serotonin release (SRA), HIT-Positive Patient #4 serum, scFv 50 µg/mL [6]: 6.7% | % inhibition of 14C-serotonin release (SRA), HIT-Positive Patient #4 serum, scFv 75 µg/mL [6]: 4.4% | % inhibition of 14C-serotonin release (SRA), HIT-Positive Patient #5 serum, scFv 50 µg/mL [6]: -6.9% | % inhibition of 14C-serotonin release (SRA), HIT-Positive Patient #5 serum, scFv 75 µg/mL [6]: 20.8%
B1: Wildtype scFv (KKO-derived single chain variable fragment) (scFv)
scFv: DIQMIQSQKFMSTSVGDRVTVTCKASQNVGTNVAWYQQKPGQSPNALIYSASYRYSGVPDRFTGSGSGTDFTLTITNVQSEDLADYFCQQYNSYPLTFGTGTKLDLKGGGGSGGGGSGGGGSVQLQQSGAELVKPGASVKLSCKASGYTFTNYFIYWVKQRPGQGLEWIGEINPRNGDTDFNEKFESRATLTVDKSSSTAYMQLSSLTSEDSAIYYCTRSPYGNNYGFTYWGQGTLVTVSA
notes: VL-(G4S)3 linker-VH; expressed in E. coli BL21 from pADL-22c, purified on Ni-NTA as histidine-tagged scFv, about 28 kDa; also called WT; KKO-scFv; not shown: histidine tag from the pADL-22c vector
